Measured values published in PMC5780041.

What was measured:
Assay in all cases: GST pull-down, quantified immunoblot
[1] = molecular target: 3x tandem linear human ubiquitin (C-terminal His-tagged) (UniProt P0CG48); details: - PINK1 (non-phosphorylated 3xUb); parent: est. 16; read off a plot
[2] = molecular target: 3x tandem linear human ubiquitin (C-terminal His-tagged), phosphorylated in vitro by GST-TcPINK1 (UniProt P0CG48); details: + PINK1 (3xUb pre-treated with GST-TcPINK1); parent: est. 14; read off a plot
[3] = molecular target: 4x tandem linear human ubiquitin (C-terminal His-tagged) (UniProt P0CG48); details: - PINK1 (non-phosphorylated 4xUb); parent: est. 32; read off a plot
[4] = molecular target: 4x tandem linear human ubiquitin (C-terminal His-tagged), phosphorylated in vitro by GST-TcPINK1 (UniProt P0CG48); details: + PINK1 (4xUb pre-treated with GST-TcPINK1); parent: est. 20; read off a plot
[5] = molecular target: 2x tandem linear human ubiquitin (C-terminal His-tagged), phosphorylated in vitro by GST-TcPINK1 (UniProt P0CG48); details: + PINK1 (2xUb pre-treated with GST-TcPINK1); parent: est. 7.5; read off a plot

Sequence of GST-tagged mouse RABGEF1 (WT) 1-74aa, Q9JM13 A58D (Q9JM13 1-74 A58D): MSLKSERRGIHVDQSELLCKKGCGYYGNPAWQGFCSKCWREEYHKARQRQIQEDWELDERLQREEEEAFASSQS
Sequence of GST-tagged mouse RABGEF1 (WT) 1-74aa, Q9JM13 Y26A (Q9JM13 1-74 Y26A): as the sequence (Q9JM13 1-74 A58D) above, with Y26A, D58A counted along it

Row | Substance | response [1] | response [2] | response [3] | response [4] | response [5]
1 | GST-tagged mouse RABGEF1 (WT) 1-74aa, Q9JM13 A58D | 8 % of total | 8 % of total | 24 % of total | 17 % of total | –
2 | GST-tagged mouse RABGEF1 (WT) 1-74aa, Q9JM13 Y26A | 14 % of total | 13 % of total | 28 % of total | 20 % of total | 4 % of total
